In the supplement of paper PMC9732359:
± gives the uncertainty stated by the source.

Experiment: protein stability index of a GFP-peptide fusion (yeast GPS) (PSI 1-4); higher = more stable; sorted into four equal gates, so the index is relative within each strain
Details: san1∆
How it was run: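 Plasmids in a pooled yeast library fused tiled 17-residue yeast protein peptides downstream of GFP and also expressed Cherry. Mid-log cultures grown without leucine were sorted into four equal gates by GFP/Cherry fluorescence ratio. Each gate's plasmids were PCR-amplified and Illumina-sequenced, and reads were matched to strains by barcodes. The protein stability index is derived by multiplying each gate's read frequency by its gate number and summing the results.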

Row | Sequence | protein stability index
1 | LLVPASDLINKDLVKNN [FAS1] | 3.11 ± 0.12
2 | LLVPLALLTKRLYPHWD [CSN12] | 1.83 ± 0.092
3 | LLYELTAFKATVFFLIR [YJL039C/NUP192] | 1.82 ± 0.077
4 | LMCLSSKYCEKSLPLLI [YCS4] | 2.39 ± 0.089
5 | LMQNMMNMFGGGMGGGM [SRP54] | 2.47 ± 0.17
6 | LMSCISVGTDPMPIITF [RPB2] | 2.28 ± 0.05
7 | LMTSHTKGDTSKATGAP [RTT102] | 3.27 ± 0.059
8 | LNAANYNIDANVIDTQR [ECM29] | 3.18 ± 0.12
9 | LNCGNGMGIGFIDHHAA [POP1] | 3.33 ± 0.07
10 | LNEEAVIFLSSLLTLVG [YJL039C/NUP192] | 2.3 ± 0.11
11 | LNELYQTQQDLPKVRYN [NSL1] | 2.96 ± 0.039
12 | LNESDCLEACSFILSSL [YDL116W/NUP84] | 2.96 ± 0.052
13 | LNGREVKAILMQRHVKV [RPS4A] | 1.39 ± 0.21
14 | LNIRIQTYGETTAVDAL [RPC19] | 1.19 ± 0.28
15 | LNLKFKEKWPSLELQSF [YML103C/NUP188] | 1.92 ± 0.11
16 | LNLPLQFSLPNGDNSTT [SNF12] | 2.283 ± 0.013
17 | LNNTHVISSGPLAAGNF [RPC53] | 2.69 ± 0.074
18 | LNRQNDITDGKDYHTLA [RPS18A] | 3.27 ± 0.05
19 | LNSTLESLYDLIEFQPS [MED6] | 2.88 ± 0.039
20 | LNTLFNPVTLNEDSKAF [NUT1] | 1.65 ± 0.091
21 | LNVAEIITSGRDTREVL [ARP9] | 3.44 ± 0.051
22 | LNVKCTRNPDAPKGSTD [RPC40] | 3.04 ± 0.064
23 | LNVPVFQIVIEPLAIAL [ARP7] | 1.48 ± 0.078
24 | LNVSNTKENGDFTLPED [PRP8] | 3.12 ± 0.049
25 | LPGELAKHAVSEGTRAV [HTB1] | 3.42 ± 0.071
26 | LPLLYNFNPDNGFAPIS [FAS1] | 2.47 ± 0.093

Row | Sequence | protein stability index
27 | LPLQPIEIDYTVRVDKA [SNF12] | 2.08 ± 0.064
28 | LPPEKIYSPLHSFIKML [SIR2] | 1.72 ± 0.05
29 | LPQFRSSIQESLLSLVG [ECM29] | 1.7 ± 0.1
30 | LPRELPKLLDALNKISK [SNU114] | 2.84 ± 0.077
31 | LPTDGGLTSRLQRQQRK [POP4] | 3.13 ± 0.12
32 | LPYAIAGSGSTFIYGYC [PRE3] | 2.26 ± 0.12
33 | LPYPTYWSDKKADTDTL [SNF5] | 3.1 ± 0.07
34 | LQCISQINQGVPSAKPL [SNF11] | 2.5 ± 0.083
35 | LQDDEDHKFPIRENKVT [BRN1] | 2.75 ± 0.074
36 | LQESINHVMYTEVSRKS [ECM29] | 2.47 ± 0.077
37 | LQGEVENIAQMKPKAEK [SMC4] | 3.19 ± 0.075
38 | LQIAQLTLKHRQNKVQH [RPN10] | 1.74 ± 0.1
39 | LQIHSRKMTTDDDINWQ [RPT5] | 2.93 ± 0.12
40 | LQIKRDVLDDLYRKLQR [CSE2] | 3.01 ± 0.085
41 | LQILAMLLLNIFISSDH [YMR129W/POM152] | 1.35 ± 0.08
42 | LQKRVIEHNLRVISEYY [RPN5] | 2.77 ± 0.069
43 | LQLETPAEVGRAIRSEK [BRR2] | 1.66 ± 0.11
44 | LQPLEEGLIIDTDKLPI [SIN4] | 2.75 ± 0.066
45 | LQRDLIQTKEQVSINSN [YIL149C/MLP2] | 3.11 ± 0.065
46 | LQRTILNRIINHMLIDS [RGR1] | 2.21 ± 0.093
47 | LQYLDKHIKNLEDDSLL [RPN12] | 3.35 ± 0.063
48 | LRAIEKNDDNSCRNPEH [YIL149C/MLP2] | 3.27 ± 0.13
49 | LRDYTTVPRIVQLLSKS [RPN2] | 2.26 ± 0.1
50 | LRELSCCINAAFLALVD [RRP46] | 2.88 ± 0.051
51 | LREYLNLPEHIVPGTYI [RPS10A] | 2.82 ± 0.056
52 | LRFPEHTSSGSVSFKVF [BRR2] | 1.33 ± 0.1

Row | Sequence | protein stability index
53 | LRIELQSVYNDEKLKTE [SRB8] | 3.26 ± 0.12
54 | LRKIDMLQKKLVEVEDE [SRB7] | 3.42 ± 0.18
55 | LRLKPGRKYTTLGKLST [RPL16B] | 3.03 ± 0.036
56 | LRLVDDDENNPSHYPHP [RRP6] | 2.77 ± 0.069
57 | LRSTEYSKSFEQFKMVS [POP1] | 2.49 ± 0.094
58 | LSALFTISSKPDILATD [YCS4] | 2.72 ± 0.088
59 | LSEAWRCWKANIPWDVP [PRP8] | 1.1 ± 0.15
60 | LSEDVNLETLVTTKDDL [RPT2] | 2.57 ± 0.15
61 | LSEPLIKIGIRVMKSLS [YCG1] | 1.74 ± 0.066
62 | LSEWEEYLKGSESQLNS [YCS4] | 3.46 ± 0.12
63 | LSHIVYFLVLSPYGNLQ [RPN5] | 1.25 ± 0.087
64 | LSHYAKIRPWRTFRLNE [RPO31] | 3.06 ± 0.073
65 | LSIWIKNYPEYFLKVTF [IRR1] | 2.2 ± 0.076
66 | LSKIKFPESIWKDFTVE [YCG1] | 1.87 ± 0.06
67 | LSKRQKRKSAQEPELSL [SMC4] | 3.09 ± 0.097
68 | LSLVYEIGGSDLKESMV [ECM29] | 3.36 ± 0.051
69 | LSRPYKALKTNINFASG [CDC53] | 2.4 ± 0.057
70 | LTDPMTVMFFYHNKHMM [DIB1] | 2.33 ± 0.094
71 | LTHSTPKNFGIGQAVQP [RPL8A] | 3.02 ± 0.033
72 | LTKFRQKLMQLVVLTDV [RGR1] | 1.24 ± 0.18
73 | LTLKHRQNKVQHQRIVA [RPN10] | 2.9 ± 0.25
74 | LTPIQKKIMDETPSRLL [ITC1] | 3.16 ± 0.049
75 | LTQEELERIVQIMQNPT [RPS18A] | 2.93 ± 0.064
76 | LTQGINGKEVPLAKIYL [MED1] | 2.32 ± 0.2
77 | LTSNISSLVRSCGEEEF [REC8] | 2.21 ± 0.13
78 | LTSQAPQTTQMFQSQSQ [YDL088C/ASM4] | 3.08 ± 0.046

Row | Sequence | protein stability index
79 | LTWLSSFSVCKIRCFRY [IRR1] | 1.58 ± 0.087
80 | LTYDKDLTNNPQDDDSQ [MTR3] | 3 ± 0.081
81 | LTYKSELSKSRALQENG [YMR153W/NUP53] | 2.01 ± 0.085
82 | LVAAFIASLERELILAK [YCG1] | 1.93 ± 0.081
83 | LVALSNEPAARLGSEAD [FAS2] | 3.45 ± 0.054
84 | LVDSLATFTSIELTSYE [RPN7] | 1.68 ± 0.057
85 | LVEKVYARFKNDFFPGE [ITC1] | 3.05 ± 0.058
86 | LVHDGLARGLRESTKAL [RPS12] | 3.19 ± 0.17
87 | LVHDVVYDFYGRHVATC [YGL100W/SEH1] | 1.41 ± 0.12
88 | LVNRKPIPFEFQAVIQK [SNF2] | 2.71 ± 0.048
89 | LVPQLGHVGSVQISNIP [PRP8] | 1.91 ± 0.12
90 | LVPTASFFIASQLQEQF [FAS1] | 1.53 ± 0.086
91 | LVQKFGGADQVTRTQQW [SWI1] | 2.88 ± 0.13
92 | LVQLPKSAMDTFKSVSK [POP3] | 2.75 ± 0.047
93 | LVRDSKPSKPFNVDDVL [MED8] | 2.46 ± 0.051
94 | LVRELYQWRDLIARRDD [RRP6] | 2.65 ± 0.055
95 | LVSEARTLWPEFIPPDP [SSN8] | 2.73 ± 0.038
96 | LVSTLTTGISSTGAADG [SMC2] | 2.93 ± 0.092
97 | LVVLTDVVERLHKNFES [RGR1] | 2.61 ± 0.12
98 | LYDLRASYAKIEIKISD [SNU114] | 2.22 ± 0.12
99 | LYDNFVSKFYDKINQLS [RPN9] | 1.58 ± 0.15
100 | LYGTAIGARSQGAKTYL [PRE5] | 3.04 ± 0.078
101 | LYLKVIPMDFIRNVLVT [SSN2] | 1.4 ± 0.23
102 | LYNDNNKNNNNRHNLLN [SWI1] | 1.95 ± 0.065

Same assay, conditions: ubr1∆

Row | Sequence | protein stability index
103 | LLVPASDLINKDLVKNN [FAS1] | 2.83 ± 0.11
104 | LLVPLALLTKRLYPHWD [CSN12] | 1.5 ± 0.037
